Assays:
[1] = biological target: T1, LAQ-1 (Lelliottia amnigena, UniProt A0A8F5JT47); experiment: inhibition of nitrocefin hydrolysis, UV-VIS spectrophotometry; assay type: biochemical
T1 construct: gene blaLAQ

[2] = system: Cc1nnc(SCC2=C(C(=O)O)N3C(=O)[C@@H](NC(=O)Cn4cnnn4)[C@H]3SC2)s1; experiment: hydrolysis initial rates, UV-VIS spectrophotometry, Michaelis-Menten fit; assay type: biochemical, Lelliottia amnigena; details: 10 mM phosphate buffer pH 7.0, 37°C
From the text: (§1) hydrolysis initial rates, UV-VIS spectrophotometry, Michaelis-Menten fit on LAQ-1

[3] = system: CC1(C)S[C@@H]2[C@H](NC(=O)[C@H](N)c3ccccc3)C(=O)N2[C@H]1C(=O)O; experiment: as above; assay type: biochemical, Lelliottia amnigena; details: 10 mM phosphate buffer pH 7.0, 37°C
From the text: as §1

[4] = system: CC(C)(O/N=C(\C(=O)N[C@@H]1C(=O)N2C(C(=O)[O-])=C(C[n+]3ccccc3)CS[C@H]12)c1csc(N)n1)C(=O)O; experiment: as above; assay type: biochemical, Lelliottia amnigena; details: 10 mM phosphate buffer pH 7.0, 37°C
From the text: as §1

[5] = system: CO/N=C(\C(=O)N[C@@H]1C(=O)N2C(C(=O)[O-])=C(C[N+]3(C)CCCC3)CS[C@H]12)c1csc(N)n1; experiment: as above; assay type: biochemical, Lelliottia amnigena; details: 10 mM phosphate buffer pH 7.0, 37°C
From the text: as §1

[6] = system: CO[C@@]1(NC(=O)Cc2cccs2)C(=O)N2C(C(=O)O)=C(COC(N)=O)CS[C@@H]21; experiment: as above; assay type: biochemical, Lelliottia amnigena; details: 10 mM phosphate buffer pH 7.0, 37°C
From the text: as §1

[7] = system: CCN1CCN(C(=O)N[C@@H](C(=O)N[C@@H]2C(=O)N3[C@@H]2SC(C)(C)[C@@H]3C(=O)O)c2ccccc2)C(=O)C1=O; experiment: as above; assay type: biochemical, Lelliottia amnigena; details: 10 mM phosphate buffer pH 7.0, 37°C
From the text: as §1

T1 sequence (A0A8F5JT47 entry or part of it): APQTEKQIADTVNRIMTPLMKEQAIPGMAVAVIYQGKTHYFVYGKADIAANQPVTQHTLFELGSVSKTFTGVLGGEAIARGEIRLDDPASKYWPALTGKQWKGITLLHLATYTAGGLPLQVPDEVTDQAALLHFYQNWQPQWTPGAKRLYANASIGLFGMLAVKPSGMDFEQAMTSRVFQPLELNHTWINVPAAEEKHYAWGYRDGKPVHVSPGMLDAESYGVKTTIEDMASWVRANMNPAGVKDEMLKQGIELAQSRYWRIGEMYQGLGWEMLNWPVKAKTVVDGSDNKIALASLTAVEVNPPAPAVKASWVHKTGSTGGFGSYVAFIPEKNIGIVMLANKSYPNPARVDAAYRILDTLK

Row | Compound | IC50 [1] [nM] | Km [2] [µM] | kcat [2] [s⁻¹] | kcat/Km [2] [M⁻¹ s⁻¹] | Km [3] [µM] | kcat [3] [s⁻¹] | kcat/Km [3] [M⁻¹ s⁻¹] | Km [4] [µM] | kcat [4] [s⁻¹] | kcat/Km [4] [M⁻¹ s⁻¹] | Km [5] [µM] | kcat [5] [s⁻¹] | kcat/Km [5] [M⁻¹ s⁻¹] | Km [6] [µM] | kcat [6] [s⁻¹] | kcat/Km [6] [M⁻¹ s⁻¹] | Km [7] [µM] | kcat [7] [s⁻¹] | kcat/Km [7] [M⁻¹ s⁻¹]
1 | Nc1nc2c(ncn2[C@@H]2O[C@H](COP(=O)(O)O)[C@@H](O)[C@H]2O)c(=O)[nH]1 [GMP] | 2630 |  |  |  |  |  |  |  |  |  |  |  |  |  |  |  |  |  | 
2 | NC(=O)[C@@H]1CC[C@@H]2CN1C(=O)N2OS(=O)(=O)O [avibactam] | 1.45 |  |  |  |  |  |  |  |  |  |  |  |  |  |  |  |  |  | 
3 | LAQ-1 (Lelliottia amnigena) |  | 645 | 25700 | 3.99e+07 | 436.1 | 9140 | 2.1e+07 | 140 | 642 | 4.58e+06 | 57.05 | 467 | 8.18e+06 | 65.4 | 1110 | 1.69e+07 | 87.56 | 9430 | 1.08e+08
